From patent publication US20240270846A1 (published 2024)
Positions count from the first letter of the chain named. Names and notes keep the numbering of the source.

B1: CE115HA000 D101L one-arm antibody (antibody, human IgG1, kappa, L234A L235A, N297A, name in Kabat numbering)
heavy: QVQLVESGGGVVQPGRSLRLSCAASGFTFSNAWMHWVRQAPGKGLEWVAQIKAKSNNYATYYAESVKGRFTISRDDSKNSLYLQMNSLKTEDTAVYYCRYVHYGAYYGVLAWGQGTTVTVSSASTKGPSVFPLAPSSKSTSGGTAALGCLVKDYFPEPVTVSWNSGALTSGVHTFPAVLQSSGLYSLSSVVTVPSSSLGTQTYICNVNHKPSNTKVDKKVEPKSCDKTHTCPPCPAPEAAGGPSVFLFPPKPKDTLMISRTPEVTCVVVDVSHEDPEVKFNWYVDGVEVHNAKTKPREEQYASTYRVVSVLTVLHQDWLNGKEYKCKVSNKALPAPIEKTISKAKGQPREPQVYTLPPSRCELTKNQVSLSCAVKGFYPSDIAVEWESNGQPENNYKTTPPVLDSDGSFFLVSKLTVDKSRWQQGNVFSCSVMHEALHNHYTQKSLSLSPDYKDDDDK
chain: EPKSSDKTHTCPPCPAPELLGGPSVFLFPPKPKDTLMISRTPEVTCVVVDVSHEDPEVKFNWYVDGVEVHNAKTKPREEQYNSTYRVVSVLTVLHQDWLNGKEYKCKVSNKALPAPIEKTISKAKGQPREPQVCTLPPSRDELTKNQVSLWCLVKGFYPSDIAVEWESNGQPENNYKTTPPVLDSDGSFFLYSKLTVDKSRWQQGNVFSCSVMHEALHNRYTQKSLSLSP
light: DIVMTQSPLSLPVTPGEPASISCRSSQSLVHSNRNTYLHWYQQKPGQAPRLLIYKVSNRFSGVPDRFSGSGSGTDFTLKISRVEAEDVGVYYCGQGTQVPYTFGQGTKLEIKRTVAAPSVFIFPPSDEQLKSGTASVVCLLNNFYPREAKVQWKVDNALQSGNSQESVTEQDSKDSTYSLSSTLTLSKADYEKHKVYACEVTHQGLSSPVTKSFNRGEC
notes: one-arm antibody
B2: CE115HA000 D101Y one-arm antibody (antibody, human IgG1, kappa, L234A L235A, N297A, name in Kabat numbering)
heavy: B1 heavy with L110Y
chain: B1 chain
light: B1 light
notes: one-arm antibody
B3: CE115HA000 G100bF one-arm antibody (antibody, human IgG1, kappa, L234A L235A, N297A, name in Kabat numbering)
heavy: B1 heavy with G108F, L110D
chain: B1 chain
light: B1 light
notes: one-arm antibody
B4: CE115HA000 G65E one-arm antibody (antibody, human IgG1, kappa, L234A L235A, N297A, name in Kabat numbering)
heavy: B1 heavy with G68E, L110D
chain: B1 chain
light: B1 light
notes: one-arm antibody
B5: CE115HA000 G98K one-arm antibody (antibody, human IgG1, kappa, L234A L235A, N297A, name in Kabat numbering)
heavy: B1 heavy with G104K, L110D
chain: B1 chain
light: B1 light
notes: one-arm antibody
B6: CE115HA000 D101M one-arm antibody (antibody, human IgG1, kappa, L234A L235A, N297A, name in Kabat numbering)
heavy: B1 heavy with L110M
chain: B1 chain
light: B1 light
notes: one-arm antibody
B7: CE115HA000 D101T one-arm antibody (antibody, human IgG1, kappa, L234A L235A, N297A, name in Kabat numbering)
heavy: B1 heavy with L110T
chain: B1 chain
light: B1 light
notes: one-arm antibody
B8: CE115HA000 D101V one-arm antibody (antibody, human IgG1, kappa, L234A L235A, N297A, name in Kabat numbering)
heavy: B1 heavy with L110V
chain: B1 chain
light: B1 light
notes: one-arm antibody
B9: CE115HA000 G65D one-arm antibody (antibody, human IgG1, kappa, L234A L235A, N297A, name in Kabat numbering)
heavy: B1 heavy with G68D, L110D
chain: B1 chain
light: B1 light
notes: one-arm antibody
B10: CE115HA000 G98S one-arm antibody (antibody, human IgG1, kappa, L234A L235A, N297A, name in Kabat numbering)
heavy: B1 heavy with G104S, L110D
chain: B1 chain
light: B1 light
notes: one-arm antibody
B11: CE115HA000 G100bE one-arm antibody (antibody, human IgG1, kappa, L234A L235A, N297A, name in Kabat numbering)
heavy: B1 heavy with G108E, L110D
chain: B1 chain
light: B1 light
notes: one-arm antibody
B12: CE115HA000 G98D one-arm antibody (antibody, human IgG1, kappa, L234A L235A, N297A, name in Kabat numbering)
heavy: B1 heavy with G104D, L110D
chain: B1 chain
light: B1 light
notes: one-arm antibody
B13: CE115HA000 G100bL one-arm antibody (antibody, human IgG1, kappa, L234A L235A, N297A, name in Kabat numbering)
heavy: B1 heavy with G108L, L110D
chain: B1 chain
light: B1 light
notes: one-arm antibody
B14: CE115HA000 G98Y one-arm antibody (antibody, human IgG1, kappa, L234A L235A, N297A, name in Kabat numbering)
heavy: B1 heavy with G104Y, L110D
chain: B1 chain
light: B1 light
notes: one-arm antibody
B15: CE115HA000 D101R one-arm antibody (antibody, human IgG1, kappa, L234A L235A, N297A, name in Kabat numbering)
heavy: B1 heavy with L110R
chain: B1 chain
light: B1 light
notes: one-arm antibody
B16: CE115HA000 G98A one-arm antibody (antibody, human IgG1, kappa, L234A L235A, N297A, name in Kabat numbering)
heavy: B1 heavy with G104A, L110D
chain: B1 chain
light: B1 light
notes: one-arm antibody
B17: CE115HA000 G100bS one-arm antibody (antibody, human IgG1, kappa, L234A L235A, N297A, name in Kabat numbering)
heavy: B1 heavy with G108S, L110D
chain: B1 chain
light: B1 light
notes: one-arm antibody
B18: CE115HA000 D101S one-arm antibody (antibody, human IgG1, kappa, L234A L235A, N297A, name in Kabat numbering)
heavy: B1 heavy with L110S
chain: B1 chain
light: B1 light
notes: one-arm antibody
B19: CE115HA000 H96G one-arm antibody (antibody, human IgG1, kappa, L234A L235A, N297A, name in Kabat numbering)
heavy: B1 heavy with H102G, L110D
chain: B1 chain
light: B1 light
notes: one-arm antibody
B20: CE115HA000 G98P one-arm antibody (antibody, human IgG1, kappa, L234A L235A, N297A, name in Kabat numbering)
heavy: B1 heavy with G104P, L110D
chain: B1 chain
light: B1 light
notes: one-arm antibody
B21: CE115HA000 G98R one-arm antibody (antibody, human IgG1, kappa, L234A L235A, N297A, name in Kabat numbering)
heavy: B1 heavy with G104R, L110D
chain: B1 chain
light: B1 light
notes: one-arm antibody
B22: CE115HA000 G98H one-arm antibody (antibody, human IgG1, kappa, L234A L235A, N297A, name in Kabat numbering)
heavy: B1 heavy with G104H, L110D
chain: B1 chain
light: B1 light
notes: one-arm antibody
B23: CE115HA000 H96Q one-arm antibody (antibody, human IgG1, kappa, L234A L235A, N297A, name in Kabat numbering)
heavy: B1 heavy with H102Q, L110D
chain: B1 chain
light: B1 light
notes: one-arm antibody
B24: CE115HA000 G98T one-arm antibody (antibody, human IgG1, kappa, L234A L235A, N297A, name in Kabat numbering)
heavy: B1 heavy with G104T, L110D
chain: B1 chain
light: B1 light
notes: one-arm antibody
B25: CE115HA000 G100bY one-arm antibody (antibody, human IgG1, kappa, L234A L235A, N297A, name in Kabat numbering)
heavy: B1 heavy with G108Y, L110D
chain: B1 chain
light: B1 light
notes: one-arm antibody
B26: CE115HA000 D101Q one-arm antibody (antibody, human IgG1, kappa, L234A L235A, N297A, name in Kabat numbering)
heavy: B1 heavy with L110Q
chain: B1 chain
light: B1 light
notes: one-arm antibody
B27: CE115HA000 D101P one-arm antibody (antibody, human IgG1, kappa, L234A L235A, N297A, name in Kabat numbering)
heavy: B1 heavy with L110P
chain: B1 chain
light: B1 light
notes: one-arm antibody
B28: CE115HA000 D101N one-arm antibody (antibody, human IgG1, kappa, L234A L235A, N297A, name in Kabat numbering)
heavy: B1 heavy with L110N
chain: B1 chain
light: B1 light
notes: one-arm antibody
B29: CE115HA000 H96K one-arm antibody (antibody, human IgG1, kappa, L234A L235A, N297A, name in Kabat numbering)
heavy: B1 heavy with H102K, L110D
chain: B1 chain
light: B1 light
notes: one-arm antibody
B30: CE115HA000 H96L one-arm antibody (antibody, human IgG1, kappa, L234A L235A, N297A, name in Kabat numbering)
heavy: B1 heavy with H102L, L110D
chain: B1 chain
light: B1 light
notes: one-arm antibody
B31: CE115HA000 G100bD one-arm antibody (antibody, human IgG1, kappa, L234A L235A, N297A, name in Kabat numbering)
heavy: B1 heavy with G108D, L110D
chain: B1 chain
light: B1 light
notes: one-arm antibody
B32: CE115HA000 G98Q one-arm antibody (antibody, human IgG1, kappa, L234A L235A, N297A, name in Kabat numbering)
heavy: B1 heavy with G104Q, L110D
chain: B1 chain
light: B1 light
notes: one-arm antibody

target: T1, CD3 epsilon homodimer protein (UniProt P07766 23-126); assay: SPR (Biacore T200), CD3 epsilon homodimer on CM4 chip, one-arm antibody as analyte; ratio to unaltered CE115HA000;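 note: surface plasmon resonance run at 25 °C with HBS-EP+ as running buffer, CD3 epsilon homodimer attached by amine coupling, antibody passed over as analyte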
T1 construct: Construct of the homodimer protein is not described; also called CD3 (CD3 epsilon)
T1 sequence (P07766 23-126): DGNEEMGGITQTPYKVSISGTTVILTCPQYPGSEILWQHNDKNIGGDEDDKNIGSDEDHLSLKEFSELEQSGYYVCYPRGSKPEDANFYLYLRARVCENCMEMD

| Binder | KD ratio (KD value of CE115HA000/KD value of the altered form) |
| --- | --- |
| B1 | 0.71 |
| B2 | 0.97 |
| B3 | 4.37 |
| B4 | 0.61 |
| B5 | 4.85 |
| B6 | 1.94 |
| B7 | 0.62 |
| B8 | 1.18 |
| B9 | 0.61 |
| B10 | 0.98 |
| B11 | 7.29 |
| B12 | 2.36 |
| B13 | 5.84 |
| B14 | 2.75 |
| B15 | 5.66 |
| B16 | 0.98 |

| Binder | KD ratio (KD value of CE115HA000/KD value of the altered form) |
| --- | --- |
| B17 | 1.25 |
| B18 | 0.91 |
| B19 | 0.8 |
| B20 | 0.88 |
| B21 | 4.69 |
| B22 | 1.14 |
| B23 | 1.36 |
| B24 | 0.93 |
| B25 | 51.4 |
| B26 | 3.55 |
| B27 | 43.4 |
| B28 | 2.28 |
| B29 | 1.56 |
| B30 | 3.14 |
| B31 | 6.25 |
| B32 | 1.04 |
